From article PMC9518701 (2022)

Key:
[1] = target: SARS-CoV-2 spike protein receptor binding domain (RBD) (SARS-CoV-2, UniProt P0DTC2 319-541)
[2] = target: human neonatal Fc receptor (FcRn) (human, UniProt P55899 24-365); assay: SPR; pH 6.0
Sequence of human neonatal Fc receptor (FcRn) (P55899 24-297, chain 1 of 2): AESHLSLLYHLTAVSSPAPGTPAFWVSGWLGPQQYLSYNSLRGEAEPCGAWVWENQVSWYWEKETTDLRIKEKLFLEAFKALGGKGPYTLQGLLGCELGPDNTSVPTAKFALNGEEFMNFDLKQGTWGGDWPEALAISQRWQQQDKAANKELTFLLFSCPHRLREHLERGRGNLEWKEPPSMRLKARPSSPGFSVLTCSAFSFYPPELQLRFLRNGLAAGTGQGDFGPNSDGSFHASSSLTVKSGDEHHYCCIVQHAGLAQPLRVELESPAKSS
Sequence of human neonatal Fc receptor (FcRn) (chain, as listed by the source, chain 2 of 2): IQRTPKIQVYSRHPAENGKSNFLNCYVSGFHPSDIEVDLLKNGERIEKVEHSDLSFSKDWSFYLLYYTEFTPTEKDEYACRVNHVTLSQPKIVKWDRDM

Row | Binder | IC50 [1] [nM] | Kd [2] [nM]
1 | romlusevimab (BRII-198) (antibody) chain 1: QVQLVQSGSELKKPGASVKVSCKASGYTFTTYVMNWVRQAPGQGLEWMGWINTNTGNPTYAQGFTGRFVFSLDTSVSTASLQISSLKAEDTAVYYCSSEITTLGGMDVWGQGTTVTVSS chain 2: SYVLTQPPSVSVAPGKTARITCGGNNIGSKSVHWYQQKPGQAPVLVIYYDSDRPSGIPERFSGSNSGNTATLTISGVEAGDEADYYCQVWDSISDHRVFGGGTKLTVL | > 200 | 
2 | P2B-1G5 (precursor of romlusevimab) (antibody, soluble extracellular FCGRT with beta-2-microglobulin assumed by convention (subunits and limits not given); assayed at pH 6.0) chain 1: QVQLVQSGSELKKPGASVKVSCKASGYTFTTYVMNWVRQAPGQGLEWMGWINTNTGNPTYAQGFTGRFVFSLDTSVSTASLQISSLKAEDTAVYYCSCEITTLGGMDVWGQGTTVTVSS chain 2: SYVLTQPPSVSVAPGKTARITCGGNNIGSKSVHWYQQKPGQAPVLVIYYDSDRPSGIPERFSGSNSGNTATLTISGVEAGDEADYYCQVWDSISDHRVFGGGTKLTVL |  | 2.51
